Biological target: wild-type PlaF (phospholipase A1 PlaF, PA2949) from Pseudomonas aeruginosa (Pseudomonas aeruginosa)
Experiment: cross-linking

Substance: wild-type PlaF (phospholipase A1 PlaF, PA2949) from Pseudomonas aeruginosa (enzyme)
- more dimer in the C10-treated sample than in the untreated one: 70%
- stoichiometry N: 2
